Measured values as given in patent CN116829596A (AUSTIA THERAPEUTICS INC, dated 2023).

Legend:
[1] = target: T1, 人类血浆激肽释放酶 (human plasma kallikrein) (human, UniProt P03952 20-390; P03952 391-638); test: SPR, 37 C, pH 7.4 or pH 6.0
T1 construct: The active enzyme is a cleaved two-chain form; also called pkal; pKal

[2] = target: T1, 人类血浆激肽释放酶 (human plasma kallikrein); test: SPR, 37 C, pH 6.0
[3] = target: T1, 人类血浆激肽释放酶 (human plasma kallikrein); test: SPR, 37 C, pH 7.4
[4] = target: T1, 人类血浆激肽释放酶 (human plasma kallikrein); test: SPR, 37 C

T1 sequence (P03952 20-390 S143N limits assumed, chain 1 of 2): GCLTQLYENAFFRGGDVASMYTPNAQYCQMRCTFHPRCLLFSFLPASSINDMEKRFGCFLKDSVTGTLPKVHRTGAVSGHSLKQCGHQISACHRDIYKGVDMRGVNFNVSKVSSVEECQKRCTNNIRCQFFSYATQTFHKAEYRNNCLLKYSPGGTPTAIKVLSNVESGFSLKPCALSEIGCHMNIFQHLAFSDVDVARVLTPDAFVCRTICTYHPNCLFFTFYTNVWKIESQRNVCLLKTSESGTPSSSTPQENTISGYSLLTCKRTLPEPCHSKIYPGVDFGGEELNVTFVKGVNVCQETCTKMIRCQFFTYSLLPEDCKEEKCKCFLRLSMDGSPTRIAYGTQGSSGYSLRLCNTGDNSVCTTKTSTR
T1 sequence (P03952 391-638 limits assumed, chain 2 of 2): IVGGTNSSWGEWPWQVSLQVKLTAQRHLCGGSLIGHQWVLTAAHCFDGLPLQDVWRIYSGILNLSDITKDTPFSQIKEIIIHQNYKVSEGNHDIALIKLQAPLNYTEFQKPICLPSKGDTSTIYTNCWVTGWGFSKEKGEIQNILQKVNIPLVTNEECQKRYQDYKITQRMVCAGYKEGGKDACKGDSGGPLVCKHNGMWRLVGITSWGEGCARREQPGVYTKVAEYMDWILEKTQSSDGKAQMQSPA

B1: MAb4-YTE (antibody, human IgG1, kappa)
heavy: QVQLVQSGAEVKKPGSSVKVSCKASGYAFSSYWMNWVRQAPGQGLEWIGQIYPGDDDTNYNAKFQGRVTITVDKSTTTAYMELSSLRSEDTAVYFCAGSLMVTTGAPFDYWGQGTTVTVSSASTKGPSVFPLAPSSKSTSGGTAALGCLVKDYFPEPVTVSWNSGALTSGVHTFPAVLQSSGLYSLSSVVTVPSSSLGTQTYICNVNHKPSNTKVDKRVEPKSCDKTHTCPPCPAPELLGGPSVFLFPPKPKDTLYITREPEVTCVVVDVSHEDPEVKFNWYVDGVEVHNAKTKPREEQYNSTYRVVSVLTVLHQDWLNGKEYKCKVSNKALPAPIEKTISKAKGQPREPQVYTLPPSREEMTKNQVSLTCLVKGFYPSDIAVEWESNGQPENNYKTTPPVLDSDGSFFLYSKLTVDKSRWQQGNVFSCSVMHEALHNHYTQKSLSLSPG
light: DIQMTQSPSSLSASVGDRVTITCKASQDVGIAVAWYQQKPGKAPKFLIYYASHRGWGVPDRFSGSGSGTDFTLTISSLQPEDFATYFCQQYRSYPLTFGQGTKLEIKRTVAAPSVFIFPPSDEQLKSGTASVVCLLNNFYPREAKVQWKVDNALQSGNSQESVTEQDSKDSTYSLSSTLTLSKADYEKHKVYACEVTHQGLSSPVTKSFNRGEC
notes: Humanised full-length human IgG1 kappa; also called Mab-YTE
fold affinity for plasma kallikrein over prekallikrein [1]: > 1000 倍 | Kd [2]: 0.9 nM | Kd [3]: 1.1 nM | fold stronger binding affinity than DX-2930 [4]: > 5 倍

B2: MAb4-LS (antibody, human IgG1, kappa)
heavy: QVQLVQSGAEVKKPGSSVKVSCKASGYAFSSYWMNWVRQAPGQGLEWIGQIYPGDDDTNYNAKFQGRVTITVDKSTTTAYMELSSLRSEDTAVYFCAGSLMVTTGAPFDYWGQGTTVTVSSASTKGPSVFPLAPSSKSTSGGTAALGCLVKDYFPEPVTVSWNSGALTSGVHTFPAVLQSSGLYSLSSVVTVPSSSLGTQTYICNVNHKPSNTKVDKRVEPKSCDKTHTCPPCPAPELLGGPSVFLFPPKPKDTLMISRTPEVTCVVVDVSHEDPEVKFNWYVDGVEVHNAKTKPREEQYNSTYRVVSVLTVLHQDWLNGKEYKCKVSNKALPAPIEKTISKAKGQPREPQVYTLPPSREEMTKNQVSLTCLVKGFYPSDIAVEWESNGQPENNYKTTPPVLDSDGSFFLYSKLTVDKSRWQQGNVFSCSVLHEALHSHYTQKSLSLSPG
light: DIQMTQSPSSLSASVGDRVTITCKASQDVGIAVAWYQQKPGKAPKFLIYYASHRGWGVPDRFSGSGSGTDFTLTISSLQPEDFATYFCQQYRSYPLTFGQGTKLEIKRTVAAPSVFIFPPSDEQLKSGTASVVCLLNNFYPREAKVQWKVDNALQSGNSQESVTEQDSKDSTYSLSSTLTLSKADYEKHKVYACEVTHQGLSSPVTKSFNRGEC
notes: Humanised full-length human IgG1 kappa
fold affinity for plasma kallikrein over prekallikrein [1]: > 1000 倍 | Kd [2]: 1.2 nM | Kd [3]: 2.2 nM | fold stronger binding affinity than DX-2930 [4]: > 5 倍
